Source: the RNAGym collection of RNA variant scans (doi:10.1073/pnas.2313332121)

B1: TPR t1 (parent)
chain: GACCAAUCUGCCCUCAGAGCUCGAGAACAUCUUCGGAUGCAGAGGAGGCAGGCUUCGGUGGCGCGAUAGCGCCAACGUCCUCAACCUCCAAUGCAUCCCACCACAUGAUGAUGCCUGAAGAGCCUUGGUUUUUUG

Variants of: B1
Assay: polymerase ribozyme fitness, log enrichment relative to wild type (log ratio); higher = more active; in vitro selection for triplet polymerase activity
Procedure, shortened: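 To select mutant libraries of each subunit of a heterodimeric triplet polymerase ribozyme, built by PCR and transcribed, each was annealed with a biotinylated primer, partner subunit and triplets, then incubated frozen at −7 °C. Extended constructs were gel-excised, captured on streptavidin beads and amplified by RT-PCR, in one round carried out in triplicate. Illumina sequencing of input and output libraries kept genotypes with ≥10 input reads and ≥1 read per output. Fitness is the base-2 logarithm of genotype enrichment relative to wild-type enrichment, from inverse-variance-weighted replicate averages.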

Variant	polymerase ribozyme fitness (log ratio)
C72A C80A A90G U125A	-3.65
G71C C88U A90C C115G	-4.94
C70G C104A	-4.9
C72A A105U G122A	-2.49
C70U G122U	-0.0756
C70U C80A A90U C123A	-6.41
C70U C85U A91C	-3.52
C70U U130G	-1.24
G71A C85G	-2.38
G71A C85A	-2.44
C70U G135A	-1.42
G71C G113C	-2.72
G71A U92A C99G G120C	-7.51
G71C C94A G113C	-4.44
G71U A111U	-3.91
C70U C88G U132C	-1.25
C70G U78A G93C	-2.76
G71U A84G G120A U130G	-1.33
C70U U81C C99A U112A U125C	-6.54
C72A A111C C124A G127A	0.235
G71C A100C	-2.78
G71U C94G	-1.13
G71U C94A	-1.14
G71U G107A	-4.04

Variant	polymerase ribozyme fitness (log ratio)
G71C A118U	-0.826
C70U A95C U109A	-7.47
G71U C73G	-5.51
G71C A118U C124G	0.835
C70U U106A U109G	-4.62
G71C C85A C101U A105C	-5.59
G71A C86U	0.0346
G71A C86A	-1.85
C70U C99A A121G	-5.54
C72A A103U	-4.58
C70G U133G	-3.44
C70U C82G C104A A111U C115U G127U	-6.19
G71C C123G	0.627
C70U C115U C123G	-1.96
G71A G135A	-1.21
G71C G110C U126C	-7.04
G71U A105U	-2.22
G71A U125A	-0.783
G71U G93C G117C	-4.78
C70U C82U	-1.59
C70G G120A	-1.34
C70G G120U	-2.36
G71U C86U C102U	-2.63
C70U G120A	0.259

Variant	polymerase ribozyme fitness (log ratio)
C70U G120C	0.206
G71C C82G U109A C115A A118U C123A	-6.35
C70U U133G	-1.12
C70G U78C G113A A121G	-2.79
G71C C94U	-3.04
C70G C124A G127U U132C	-0.524
C70U U112A U116A	-1.48
C70G U92C C123A	-5.06
C70U C94U U112A	0.254
G71A A111C A118U	-0.257
C70G U78C	-2.66
G71C A100U G120U	-1.67
C70G U109G	-6.4
C70G C94G C123A	-3.58
G71A U129A	-1.76
C70G G93U	-3.28
C70U C72A C79U G110A	-2.38
G71U U129G	-0.793
G71U A121C	1.43
C70U C123U	0.707
C70U C123G	0.306
C70U C123A	-0.0908
G71U G77C C86U	-2.09
G71C C114G	-4.37

Variant	polymerase ribozyme fitness (log ratio)
G71A G107A C114U	-4.4
C70U C102G	-6.87
C70U C94G A95G	-1.78
C70U A95U C124A	-2.31
C70U U87C C123G	2.6
C70U U81A U116G	-3.38
C72A C73G C86U C115A C123G	-0.582
C70U A84G	-1.86
C70U C72G A75U	-1.29
C70U U92A	-4.11
C70G G113C	-4
C70G G113A	-3.02
C70U C72U	0.27
G71A U78C	-0.782
C70U C86U G117A	-2.35
C70U A108G	-2.04
C70U C124A	1.38
C70U C124U	0.579
G71A G93A	-1.39
G71A G93U	-1.52
G71C C88U	-2.61
G71C U132A	-0.602
G71C C102G C114U C115U G120C	-5.82
G71C C99U	-4.28

Variant	polymerase ribozyme fitness (log ratio)
G71A C73U C101A U132A	-2.2
C70U C89A A90G U92A	-6.08
G71C A84U C94U	-1.84
G71C C80U	-4.42
C70G U81A G117U G120A	-5.65
G71C C72G C123G	-5.34
C70U C86A	-1.13
C70U C86G	-1.54
C70U C86U	-1.4
G71A C99U C115A U129C G135U	-5.53
G71A G107A	-4.98
C70U U78C C86G	-0.947
G71A C88A	-0.898
C70U C88G	-1.63
C70U C88A	-0.884
C70G U116A	-4.95
C70U U87G	-0.364
G71U C85G C88G C115A	-5.75
C70U G127C	-2.15
G71C A108G	-2.34
C70U C85G	-2.33
G71C U87A	-2.35
C70U C73G A105U	-4.61
G71A G127U	-0.848

Variant	polymerase ribozyme fitness (log ratio)
C70U C98A	-4.77
G71U G77U C89A	-2.84
C70G C97U	-2.56
C70U C101G	-2.81
C70U C101U	-0.854
G71C G117A	-1.82
G71A A83C G93C A118G	-2.9
G71U G77C U126C	-2.3
G71U C72G C123A	-2.68
C70U U96C C97U C104A	-5.19
G71A C82U	-0.155
G71A C82G	-2.5
G71U C114G U132A	-2.34
G71U U81G C114A	-5.63
G71C A121C C123U C124U	-2.8
C70U G128U	-1.82
G71U U92C	-1.11
C70G U78C G113C	-5.1
C70U U112G	-0.342
G71C G120U	-0.52
C70G C102A	-5.59
G71C A95U A111G C123U	-3.04
C70U C82G U106C	-1.36
G71C U92A A119U C124A	-3.83

Variant	polymerase ribozyme fitness (log ratio)
C72A C76G C101A C115A	-1.47
C70U C104A	-2.32
G71U C115A	1.51
G71A C72A	-1.46
G71A C72U	-1.32
G71C C85U C94U U132A	-2.18
G71C C79U	0.303
G71C G93A C102A	-5.09
C70G C98U G117A	-5.6
C72A A90U C115U	-1.55
C70U C114G	-3.48
G71C G122A	-2.06
C70U G110U G135U	-3.77
C70U U131G	-2.36
C70U A118U	0.0135
G71U U78G	-0.594
G71U U78C	-0.468
C70U C89A	-2.09
C70U C89U	-1.12
G71U C101U C115A	-0.712
G71A C73G G110A	-7.06
G71A C123G	1.1
C70G C104G G110A	-6.86
